In the DeepSol protein solubility set:

Assay: soluble on expression in E. coli; label from the status in PepcDB or PDB records

Row | Sequence | soluble on expression in E. coli
1 | MSQDLQKEVASRKTFAIISHPDAGKTTITEQLLLFGGVIRSAGTVKGKKSGKFATSDWMEIEKQRGISVTSSVMQFDYNGSRINILDTPGHSDFSEDTYRTLMAVDSAVMVIDAAKGIEAQTLKLFKVCRMRGIPIFTFINKMDRQGKMPLELLAELEEVLGIESYPMNWPIGMGKELAGLYDRYHRVIEQYRSEEDERFLPLGEDGDLKEAHAIQKSLYYDQALEEIMLLDEAGNDFSRERIIAGEQTPVFFGSALTNFGVETFLRTFVDFAPAPSSHESNEGVIEADNPKFSGFIFKIQANMNPAHRDRIAFIRICSGEFERGMNVTLTRTGKSLKLANSTQFMADDRETVNRAVAGDIIGLYDTGNYQIGDTITNGSKKLEFEKLPQFTPELFMRVYAKNVMKQKHFHKGVEQLVQEGAIQLFKTWRTEEYIIGAVGQLQFEVFEHRMRGEYNSEIRMEPIGKKIARWVKEEDADEKLSTARSMLVKDRFDQPLFLFENEFAINWFNDKNPDIELTSLL | not soluble
2 | MGKSLDEQFEAAVWIINALPKNGPIKTSINDQLQMYSLYKQATSGKCDTIQPYFFQIEQRMKWNAWNQLGNMDEAEAKAQYVEKMLKLCNQAEAEHNLMEFLSDPTIADLLPKQNQLREHFATLGRTTVKGFEGETVEINGVSISF | not soluble
3 | MIENIMSLQKGLPEEISALEEDLAFTSRQIEARKKIADERQKLRERLNSVIHDCKEKIKSFKEKQTLARNNKEYDALSKQIEYEEKEIAQAEIQLQDISHAEHHAQELQKKGRELIAENRYDEISEEMMPDDVLQQQMEDLGQQVRQKKEELESIVVETAEEVAQLKAVLSEQRSVVAQQAKRLLDKYDHLKSGSIQNAVVKLDRQACSGCNTRVPTNRHTLIVQGGFYVCESCGRIVVHERLFDEAAASGQQ | not soluble
4 | SNAMLNIVLFEPEIPPNTGNIIRLCANTGCQLHLIKPLGFTWDDKRLRRAGLDYHEFADIKHHHDYQAFLDSEKLDSTQPARLFALTTKGTPAHSAVSYQANDYLLFGPETRGLPAYILDALPAQQKIRIPMQADSRSMNLSNAVSVVVYEAWRQLGYPGALLKE | soluble
5 | MGSDKIHHHHHHMAIETILVINKSGGLIYQRNFTNDEQKLNSNEYLILASTLHGVFAIASQLTPKALQLTQQTNIENTIPYIPYVGMSSNRSDTRNGGGNNNKHTNNEKLGSFKGDDFFKEPFTNWNKSGLRQLCTDQFTMFIYQTLTGLKFVAISSSVMPQRQPTIATTDKPDRPKSTSNLAIQIADNFLRKVYCLYSDYVMKDPSYSMEMPIRSNLFDEKVKKMVENLQ | not soluble
6 | MFLSRGFNAFIAKPIDVMQLDAVLNTWVRDRKSIEILKQAEMIAPLIIENANQNIFDSVQIEGLDLVRGKKKYNNDAAYLDILRSWHKHTPALLEKMRNPVFENLSEYAITVHGIKGASLGICADEISSKAEELEHYAKSGNIGKVQADNSMFIGMAESLLANIGELLEKFDVGKKEKPKKHAPDPALLDRLLEAAKSYKSTLMEETMCSIESYDYDSDMELVTWLRQQMDDLEYDAIRQKLESRMPGFVET | not soluble
7 | MLLPRCCWGRWLMGRRPRCSCQAPAGFDGKDGRGSRVREMPPWRVLFLGTDHFARETLRALHAARDGKEEKLIEKLEVVTVPSLSPKGLPVKQYAIQSQLPVYEWPDVGSGEYDVGVVASFGRLLSEALILKFPYGILNVHPSCLPRWRGPAPIIHTVLHGDTVTGVTIMQIRPKRFDIGPILQQETIPVPPKSTSKELEAVLSKLGANMLISVLKNLPESLNNGRPQPAEGVTYAPKVSAGTSCVKWEEQTSEQVLRLHLAIGDIVPLQTLWMENTVKLLDLVEVNNSILADPKLTGQTVTPGFVVYHRPSQMLLVRCKDGWIGVRSVMLKKTLTATDFYNGYLHAWYQKNSHAHPSQCRFQTLRLPTKMQQKTKLLLCNSALSS | soluble
8 | MGSDKIHHHHHHMLLTDLVTPPDTALCAAAEEMARMASDPFLYNHVSRSYIFGALAARATGTQYDPELFYIAAMLHDLGLTETYMAEDRFEVDAAEAAAKFLAAQNVEQSRIDRVWDAIALHTTFSIPQKKSPEAALVQIGAGLDVGVMPHDHITPEVMEQVLDAYPRLGFKKAMEQALIKVYAAKPMTAMHNFGADVAHRHVPDFHPPHFCDVLHGADFPE | not soluble
9 | KGMIRPRGLNQQRYVKEVLSNDINFGIGPAGTGKTYLAVACAVDALEREQIRRILLVRPAVEAGEKLGFLPGDLAQKIDPYLRPLYDALYEMLGFEYVAKLIEKQVIEVAPLAYMRGRTLNNSFIILDESQNTTVEQMKMFLTRIGFGSTAVITGDITQVDLPKGTRSGLTHVIDVLKDVPGISFTHFKPKDVVRHPLVQRIVEAYERFDDQLSDGPSGNNG | soluble
10 | MGSDKIHHHHHHTKRWEEGKMSNFEYLTMLNLFAGRTIHDSSSSPIFPRILAKFGDKSVDLQDKTIYRKLDRPVAAQDPVSVEKHKEHYNELKENEEISHLTPYHFGSMCSNRGVVSFFNIRLLPFGEEAIELQDGRFDFPDRLFHNIESGLGLGKIESSNDYKELVPELFTTVEVLRNDNGNQFGEKQNGETVNDVDVPQWCYMDEKAVHENFIYLHRHALESEIVQSMLHHWIDLVFGYKSRGKSAHDAINVYHPAVYPGNSPPPSFDRVMTNAYEANQKTLGTAPIQLFTQSHPKR | not soluble
11 | MKPFLSACLIVKNEEEMLGKCLESLRRVIEEIIVVDTGSTDSTKEIARQFTDKVYDFEWMNDFSEARNFAASKANGEWIIAIDADECVDPDNFKEAIKEIKFHQNKFNMYLVEITSFSGALGENTTVNQMPRIYVNDGTICYKRAIHEQLEAVEGGLRVSLSSLKVYHYGYLSNVVVKQDKKS | soluble
12 | MKHMLIAGGGIGGLSAAISLRKAGFSVTLCEAASENRKTGAGILQPQNALAVLKELGVFEDCCKHGFQTEWFKTFDEQGNLLFQVSESFLDDSLPGRNNILRKTLNDILMKHAEAVGVDIKWGKKVVAYEETAESVTALCEDGEKMQADILAGFDGIHSVVRDKMLQKETEKEHLGMGAWRFYIELPDYTFEDATFMYRSGDTQIGVVPLAQHAGYVFVLQPCTSDYWDEEDTRFDRVKEILSGFRGLDFVTKHMSKQHPVIFNKLEQVAVQEPWHKGRVIIGGDAAHAGAPTLAQGAAMAIEDAIVLAEELQNHADHETALQAYYKRRAPRALKVQNLSSEIVRRRLKGEPGAEELIGECYAVLREGYLEHHHHHH | not soluble
13 | NGMDEEQRQKRRRIEVALIEYRETLEEQGMKNPEEIERKVEINRKRLEVDYGLS | soluble
14 | MSLTRKKEDPGHSGRADRAARLSKASTHHAQHRQQPQRTRHERPRHAGHVAGKLYQLEVSEALISSVTDAVLDNVHAWQSRPLAAQRAENQRLIPD | soluble
15 | MAKNRFVRDVRLIASTSGDPIDAGQNGELLKSLYYQIAVHCIVLPPLRERKEDILPLAIHFIRQGNERYGLHVEGLGDDVQEAFLAYSWPGNVRELEAVILETMATMEQEQTITLAHLPAPFRAKLAPDETKTDFLFDTEDILPLDKYMEEVEIYYIRKALQHHGFNITKTAKALGLSRQNLQYRIRKYQIDKEWG | not soluble
16 | MGSDKIHHHHHHMRRGGTAFSSKCKICGKAAPFSLPVCPECSKKDAALEIATSLHPPLYEKRVEGCNLCSNKCSGIALCGKPEYGKLTYYEDPLPTNCCNAWFCNGSKLTGTNLAVFYYGCNFDCLYCQNWTHKYFEDVRTVSVDELLRAAKNFRVRCVCHFGGSPEPQLPFALKFSRKALEFKEDLMICWEWNGAGNTSLALKAAELSSRSGGTVKFDLKAWNPNLHVLLTGRDNERVKDNFERIYDKHGEVLSATTLLVPYYVDEEEVEGIARFISSFSTEIPYSLLVFHPDYRMSDFPVTPVQQVKRCYKAAKKHLKNVNIGNLHLLGL | not soluble
